Test results reported in the supplement of paper PMC11780869.

Test system: Bacillus subtilis
Experiment: cleaved RNA product abundance (RNA/gDNA barcode ratio) relative to median wild-type variant (ratio to wild type); higher = more accumulation of the downstream cleavage product
Conditions: experiment (reporter, strain, medium): exp 8a: truncated aprE reporter, strain BJT201 with 2% xylose (RNase J1 expressed); cleavage site: glnRA (positions -5 to +31 mutated)
Method in brief: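 Reporter mRNAs based on truncated aprE or tetM carried barcoded, mutagenized RNase Y cleavage-site windows built from oligos with a 9% error rate and were integrated into the B. subtilis chromosome. Cultures grew in LB at 37°C from OD600 0.0003 to 0.3. Cleaved RNA was gel-selected, reverse transcribed and barcode-sequenced together with genomic DNA barcodes, and UMIs were collapsed. Cleaved product abundance is the per-construct ratio of RNA to gDNA barcodes, scaled to the median of constructs carrying the unmutated site.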

| Sequence | cleaved RNA product abundance |
| --- | --- |
| CGACATGTCCCGCTTCTTTCATTATTCCGTTAGCAACAGTTTTGCTATATACATTTACCTTTTAAGAGGAGGAAT | 1.12 |
| CGACATGTCCCGCTTCTTTCATTATTCCGTTAGCAACGGTTTTGCTATATACATTTACCTTTTAAGAGGAGGAAT | 0.56 |
| CGACATGTCCCGCTTCTTTCATTATTCCGTTAGCAACTATTTTGCTATATACATTTACCTTTTAAGAGGAGGAAT | 1.91 |
| CGACATGTCCCGCTTCTTTCATTATTCCGTTAGCAACTATTTTTCTATATACATTTACCTTTTAAGAGGAGGAAT | 0.956 |
| CGACATGTCCCGCTTCTTTCATTATTCCGTTAGCAACTCTTTTGCTAAATACATTTACCTTTTAAGAGGAGGAAT | 0.422 |
| CGACATGTCCCGCTTCTTTCATTATTCCGTTAGCAACTCTTTTGCTATATACATTTACCTTTTAAGAGGAGGAAT | 2.3 |
| CGACATGTCCCGCTTCTTTCATTATTCCGTTAGCAACTGCTTTGCTATATACATTTACCTTTTAAGAGGAGGAAT | 0.681 |
| CGACATGTCCCGCTTCTTTCATTATTCCGTTAGCAACTGGTTTGCTATATACATTTACCTTTTAAGAGGAGGAAT | 1.54 |
| CGACATGTCCCGCTTCTTTCATTATTCCGTTAGCAACTGTATTGCTATATACATTTACCTTTTAAGAGGAGGAAT | 1.36 |
| CGACATGTCCCGCTTCTTTCATTATTCCGTTAGCAACTGTCTTGCTATATACATTTACCTTTTAAGAGGAGGAAT | 1.31 |
| CGACATGTCCCGCTTCTTTCATTATTCCGTTAGCAACTGTGTTGCTATATACATTTACCTTTTAAGAGGAGGAAT | 0.7 |
| CGACATGTCCCGCTTCTTTCATTATTCCGTTAGCAACTGTTATGCTATATACATTTACCTTTTAAGAGGAGGAAT | 0.76 |
| CGACATGTCCCGCTTCTTTCATTATTCCGTTAGCAACTGTTCTGCTATATACATTTACCTTTTAAGAGGAGGAAT | 0.551 |
| CGACATGTCCCGCTTCTTTCATTATTCCGTTAGCAACTGTTGTGCTATATACATTTACCTTTTAAGAGGAGGAAT | 0.941 |
| CGACATGTCCCGCTTCTTTCATTATTCCGTTAGCAACTGTTTAGCTATATACATTTACCTTTTAAGAGGAGGAAT | 0.706 |
| CGACATGTCCCGCTTCTTTCATTATTCCGTTAGCAACTGTTTAGGTATATACATTTACCTTTTAAGAGGAGGAAT | 0.443 |
| CGACATGTCCCGCTTCTTTCATTATTCCGTTAGCAACTGTTTCGCTATATACATTTACCTTTTAAGAGGAGGAAT | 0.509 |
| CGACATGTCCCGCTTCTTTCATTATTCCGTTAGCAACTGTTTGGCTATATACATTTACCTTTTAAGAGGAGGAAT | 0.949 |
| CGACATGTCCCGCTTCTTTCATTATTCCGTTAGCAACTGTTTTACTATATACATATACCTTTTAAGAGGAGGAAT | 0.607 |
| CGACATGTCCCGCTTCTTTCATTATTCCGTTAGCAACTGTTTTACTATATACATTTACCTTTTAAGAGGAGGAAT | 0.812 |
| CGACATGTCCCGCTTCTTTCATTATTCCGTTAGCAACTGTTTTCATAAATACATTTACCTTTTAAGAGGAGGAAT | 0.375 |
| CGACATGTCCCGCTTCTTTCATTATTCCGTTAGCAACTGTTTTCCTATATACATTTACCTTTTAAGAGGAGGAAT | 0.524 |

| Sequence | cleaved RNA product abundance |
| --- | --- |
| CGACATGTCCCGCTTCTTTCATTATTCCGTTAGCAACTGTTTTGATATATACATTTACCTTTTAAGAGGAGGAAT | 0.502 |
| CGACATGTCCCGCTTCTTTCATTATTCCGTTAGCAACTGTTTTGCAATATACATTTACCTTTTAAGAGGAGGAAT | 0.626 |
| CGACATGTCCCGCTTCTTTCATTATTCCGTTAGCAACTGTTTTGCCATATACATTTACCTTTTAAGAGGAGGAAT | 0.346 |
| CGACATGTCCCGCTTCTTTCATTATTCCGTTAGCAACTGTTTTGCGATATACATTTACCTTTTAAGAGGAGGAAT | 0.52 |
| CGACATGTCCCGCTTCTTTCATTATTCCGTTAGCAACTGTTTTGCTAAATACATTTACCTTTTAAGAGGAGGAAT | 0.93 |
| CGACATGTCCCGCTTCTTTCATTATTCCGTTAGCAACTGTTTTGCTACATACATTTACCTTTTAAGAGGAGGAAT | 0.626 |
| CGACATGTCCCGCTTCTTTCATTATTCCGTTAGCAACTGTTTTGCTATAAACAGTTACCTTTTAAGAGGAGGAAT | 0.0919 |
| CGACATGTCCCGCTTCTTTCATTATTCCGTTAGCAACTGTTTTGCTATAAACATTTACCTTTTAAGAGGAGGAAT | 0.851 |
| CGACATGTCCCGCTTCTTTCATTATTCCGTTAGCAACTGTTTTGCTATACACATTTACCTTTTAAGAGGAGGAAT | 0.807 |
| CGACATGTCCCGCTTCTTTCATTATTCCGTTAGCAACTGTTTTGCTATAGACATTTACCTTTTAAGAGGAGGAAT | 0.917 |
| CGACATGTCCCGCTTCTTTCATTATTCCGTTAGCAACTGTTTTGCTATATAAATTTACCTTTTAAGAGGAGGAAT | 0.753 |
| CGACATGTCCCGCTTCTTTCATTATTCCGTTAGCAACTGTTTTGCTATATACAATTACCTTTTAAGAGGAGGAAT | 1.31 |
| CGACATGTCCCGCTTCTTTCATTATTCCGTTAGCAACTGTTTTGCTATATACACTTACCTTTTAAGAGGAGGAAT | 1.07 |
| CGACATGTCCCGCTTCTTTCATTATTCCGTTAGCAACTGTTTTGCTATATACAGTTACCTTTTAAGAGGAGGAAT | 0.649 |
| CGACATGTCCCGCTTCTTTCATTATTCCGTTAGCAACTGTTTTGCTATATACATATACCTTTTAAGAGGAGGAAT | 1.59 |
| CGACATGTCCCGCTTCTTTCATTATTCCGTTAGCAACTGTTTTGCTATATACATCTACCTTTTAAGAGGAGGAAT | 1.15 |
| CGACATGTCCCGCTTCTTTCATTATTCCGTTAGCAACTGTTTTGCTATATACATTAACATTTTAAGAGGAGGAAT | 2.49 |
| CGACATGTCCCGCTTCTTTCATTATTCCGTTAGCAACTGTTTTGCTATATACATTAACCTTTTAAGAGGAGGAAT | 1.44 |
| CGACATGTCCCGCTTCTTTCATTATTCCGTTAGCAACTGTTTTGCTATATACATTCACCTTTTAAGAGGAGGAAT | 1.3 |
| CGACATGTCCCGCTTCTTTCATTATTCCGTTAGCAACTGTTTTGCTATATACATTGACCTTTTAAGAGGAGGAAT | 1.55 |
| CGACATGTCCCGCTTCTTTCATTATTCCGTTAGCAACTGTTTTGCTATATACATTTAACTTTTAAGAGGAGGAAT | 1.71 |
| CGACATGTCCCGCTTCTTTCATTATTCCGTTAGCAACTGTTTTGCTATATACATTTACATTTTAAGAGGAGGAAT | 1.98 |

| Sequence | cleaved RNA product abundance |
| --- | --- |
| CGACATGTCCCGCTTCTTTCATTATTCCGTTAGCAACTGTTTTGCTATATACATTTACCATTTAAGAGGAGGAAT | 1.89 |
| CGACATGTCCCGCTTCTTTCATTATTCCGTTAGCAACTGTTTTGCTATATACATTTACCCTTTAAGAGGAGGAAT | 0.558 |
| CGACATGTCCCGCTTCTTTCATTATTCCGTTAGCAACTGTTTTGCTATATACATTTACCGTTTAAGAGGAGGAAT | 1.18 |
| CGACATGTCCCGCTTCTTTCATTATTCCGTTAGCAACTGTTTTGCTATATACATTTACCTTTTAAGAGGAGGAAT | 1.42 |
| CGACATGTCCCGCTTCTTTCATTATTCCGTTAGCAACTGTTTTGCTATATACATTTACGTTTTAAGAGGAGGAAT | 2.39 |
| CGACATGTCCCGCTTCTTTCATTATTCCGTTAGCAACTGTTTTGCTATATACATTTACTTTTTAAGAGGAGGAAT | 1.96 |
| CGACATGTCCCGCTTCTTTCATTATTCCGTTAGCAACTGTTTTGCTATATACATTTATCTTTTAAGAGGAGGAAT | 1.8 |
| CGACATGTCCCGCTTCTTTCATTATTCCGTTAGCAACTGTTTTGCTATATACATTTCCCTTTTAAGAGGAGGAAT | 1.01 |
| CGACATGTCCCGCTTCTTTCATTATTCCGTTAGCAACTGTTTTGCTATATACATTTGCCTTTTAAGAGGAGGAAT | 0.599 |
| CGACATGTCCCGCTTCTTTCATTATTCCGTTAGCAACTGTTTTGCTATATACATTTTCCTTTTAAGAGGAGGAAT | 0.792 |
| CGACATGTCCCGCTTCTTTCATTATTCCGTTAGCAACTGTTTTGCTATATACCTTTACCTTTTAAGAGGAGGAAT | 0.383 |
| CGACATGTCCCGCTTCTTTCATTATTCCGTTAGCAACTGTTTTGCTATATACGTTTACCTTTTAAGAGGAGGAAT | 0.645 |
| CGACATGTCCCGCTTCTTTCATTATTCCGTTAGCAACTGTTTTGCTATATACTTTTACCTTTTAAGAGGAGGAAT | 0.815 |
| CGACATGTCCCGCTTCTTTCATTATTCCGTTAGCAACTGTTTTGCTATATAGATTTAACTTTTAAGAGGAGGAAT | 0.911 |
| CGACATGTCCCGCTTCTTTCATTATTCCGTTAGCAACTGTTTTGCTATATAGATTTACCTTTTAAGAGGAGGAAT | 1.02 |
| CGACATGTCCCGCTTCTTTCATTATTCCGTTAGCAACTGTTTTGCTATATATATTTACCTTTTAAGAGGAGGAAT | 1.45 |
| CGACATGTCCCGCTTCTTTCATTATTCCGTTAGCAACTGTTTTGCTATATCCATTTACCTTTTAAGAGGAGGAAT | 0.359 |
| CGACATGTCCCGCTTCTTTCATTATTCCGTTAGCAACTGTTTTGCTATATTCATTTACCTTTTAAGAGGAGGAAT | 0.669 |
| CGACATGTCCCGCTTCTTTCATTATTCCGTTAGCAACTGTTTTGCTATCTACATTTACCTTTTAAGAGGAGGAAT | 0.167 |
| CGACATGTCCCGCTTCTTTCATTATTCCGTTAGCAACTGTTTTGCTATGTACATTTACCTTTTAAGAGGAGGAAT | 0.184 |
| CGACATGTCCCGCTTCTTTCATTATTCCGTTAGCAACTGTTTTGCTATTTACATTTACCTTTTAAGAGGAGGAAT | 0.131 |
| CGACATGTCCCGCTTCTTTCATTATTCCGTTAGCAACTGTTTTGCTCTATACATTTACCTTTTAAGAGGAGGAAT | 0.354 |
